Laboratory results as given in US20250011737A1 (ALX ONCOLOGY, published 2025).

These binders were tested against T1, human CD47-hFc (R & D Systems, catalog number 4670-CD) (human, UniProt Q08722 19-139) (assay: SPR (Biacore T100), CD47-hFc immobilized on CM4 chip, intact construct injected).
T1 construct: Bought; immobilized by amine coupling on a CM4 chip (370 RU); also called CD47 on the chip; not shown: human Fc (hFc) of a bought protein
T1 sequence (Q08722 19-139 limits assumed): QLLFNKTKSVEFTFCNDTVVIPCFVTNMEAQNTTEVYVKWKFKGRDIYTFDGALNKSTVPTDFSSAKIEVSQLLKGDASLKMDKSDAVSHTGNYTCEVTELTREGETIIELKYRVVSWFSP

binding result	Binder
no binding (tested: 100 nM)	SIRP-α variant construct (SEQ ID NO: 53), intact (other, uncleaved) QLLFNKTKSVEFTFSNDTVVIPCFVTNMEAQNTTEVYVKWKFKGRDIYTFDGALNKSTVPTDFSSAKIEVSQLLKGDASLKMDKSDAVSHTGNYTCEVTELTREGETIIELKYRVVSGGGGSGGGGSGGGGSGGGGSLSGRSDNHGGGGSGGGGSEEELQIIQPDKSVLVAAGETATLRCTITSLFPVGPIQWFRGAGPGRVLIYNQRQGPFPRVTTVSDTTKRNNMDFSIRIGNITPADAGTYYCIKFRKGSPDDVEFKSGAGTELSVRAKPS
no binding (tested: 100 nM)	SIRP-α variant construct (SEQ ID NO: 52), intact (other, uncleaved) QLLFNKTKSVEFTFSNDTVVIPCFVTNMEAQNTTEVYVKWKFKGRDIYTFDGALNKSTVPTDFSSAKIEVSQLLKGDASLKMDKSDAVSHTGNYTCEVTELTREGETIIELKYRVVSGGGGSGGGGSGGGGSLSGRSDNHGGGGSGGGGSEEELQIIQPDKSVLVAAGETATLRCTITSLFPVGPIQWFRGAGPGRVLIYNQRQGPFPRVTTVSDTTKRNNMDFSIRIGNITPADAGTYYCIKFRKGSPDDVEFKSGAGTELSVRAKPS
no binding (tested: 100 nM)	SIRP-α variant construct (SEQ ID NO: 54), intact (other, uncleaved) QLLFNKTKSVEFTFSNDTVVIPCFVTNMEAQNTTEVYVKWKFKGRDIYTFDGALNKSTVPTDFSSAKIEVSQLLKGDASLKMDKSDAVSHTGNYTCEVTELTREGETIIELKYRVVSGGGGSGGGGSGGGGSGGGGSGGGGSLSGRSDNHGGGGSGGGGSEEELQIIQPDKSVLVAAGETATLRCTITSLFPVGPIQWFRGAGPGRVLIYNQRQGPFPRVTTVSDTTKRNNMDFSIRIGNITPADAGTYYCIKFRKGSPDDVEFKSGAGTELSVRAKPS

The binders below were run against T2, CD47 IgSF domain having amino acids 1-117 and C15S, relative to wild-type CD47 (SEQ ID NO: 35) (human, UniProt Q08722 19-135) (assay: inferred from SPR of cleaved constructs SEQ ID NOs: 52-54 on CD47-hFc).
T2 construct: in the assay it was tethered to, or released by cleavage from, the SIRP-α variant (it then still carries spacer and linker residues); also called IgSF domain of CD47

binding result	Binder
binds	SIRP-α variant (SEQ ID NO: 31) (receptor, also called SIRP-α variant alone) EEELQIIQPDKSVLVAAGETATLRCTITSLFPVGPIQWFRGAGPGRVLIYNQRQGPFPRVTTVSDTTKRNNMDFSIRIGNITPADAGTYYCIKFRKGSPDDVEFKSGAGTELSVRAKPS

The binders below were run against T1, human CD47-hFc (R & D Systems, catalog …) (assay: SPR (Biacore T100), CD47-hFc immobilized on CM4 chip, intact construct at 100 nM).

binding result	Binder
binds	SIRP-α variant construct (SEQ ID NO: 50), intact (other, uncleaved) GQYTSEVTELTREGETIIELKGGGGSGGGGSLSGRSDNHGGGGSGGGGSEEELQIIQPDKSVLVAAGETATLRCTITSLFPVGPIQWFRGAGPGRVLIYNQRQGPFPRVTTVSDTTKRNNMDFSIRIGNITPADAGTYYCIKFRKGSPDDVEFKSGAGTELSVRAKPS
binds	SIRP-α variant construct (SEQ ID NO: 48), intact (other, uncleaved) SEVTELTREGETGGGGSGGGGSLSGRSDNHGGGGSGGGGSEEELQIIQPDKSVLVAAGETATLRCTITSLFPVGPIQWFRGAGPGRVLIYNQRQGPFPRVTTVSDTTKRNNMDFSIRIGNITPADAGTYYCIKFRKGSPDDVEFKSGAGTELSVRAKPS
binds	SIRP-α variant construct (SEQ ID NO: 49), intact (other, uncleaved) SEVTELTREGETGGGGSGGGGSGGGGSLSGRSDNHGGGGSGGGGSEEELQIIQPDKSVLVAAGETATLRCTITSLFPVGPIQWFRGAGPGRVLIYNQRQGPFPRVTTVSDTTKRNNMDFSIRIGNITPADAGTYYCIKFRKGSPDDVEFKSGAGTELSVRAKPS
binds	SIRP-α variant construct (SEQ ID NO: 51), intact (other, uncleaved) GQYTSEVTELTREGETIIELKGGGGSGGGGSGGGGSLSGRSDNHGGGGSGGGGSEEELQIIQPDKSVLVAAGETATLRCTITSLFPVGPIQWFRGAGPGRVLIYNQRQGPFPRVTTVSDTTKRNNMDFSIRIGNITPADAGTYYCIKFRKGSPDDVEFKSGAGTELSVRAKPS

Each binder was assayed against T1, human CD47-hFc (R & D Systems, catalog …) (assay: SPR (Biacore T100), CD47-hFc immobilized on CM4 chip, intact construct injected (FIG. 5B)).

binding result	Binder
no binding (tested: 100 nM)	SIRP-α variant construct (SEQ ID NO: 61), intact (other, uncleaved) QLLFNKTKSVEFTFSNDTVVIPCFVTNMEAQNTTEVYVKWKFKGRDIYTFDGALNKSTVPTDFSSAKIEVSQLLKGDASLKMDKSDAVSHTGNYTCEVTEYTREGETIIELKYRVVSGGGGSGGGGSGGGGSGGGGSLSGRSDNHGGGGSGGGGSEEELQIIQPDKSVLVAAGETATLRCTITSLFPVGPIQWFRGAGPGRVLIYNQRQGPFPRVTTVSDTTKRNNMDFSIRIGNITPADAGTYYCIKFRKGSPDDVEFKSGAGTELSVRAKPS
no binding (tested: 100 nM)	SIRP-α variant construct (SEQ ID NO: 62), intact (other, uncleaved) QLLFNKTKSVEFTFSNDTVVIPCFVTNMEAQNTTEVYVKWKFKGRDIYTFDGALNKSTVPTDFSSAKIEVSQLLKGDASLKMDKSDAVSHTGNYTCEVTELQREGETIIELKYRVVSGGGGSGGGGSGGGGSGGGGSLSGRSDNHGGGGSGGGGSEEELQIIQPDKSVLVAAGETATLRCTITSLFPVGPIQWFRGAGPGRVLIYNQRQGPFPRVTTVSDTTKRNNMDFSIRIGNITPADAGTYYCIKFRKGSPDDVEFKSGAGTELSVRAKPS
no binding (tested: 100 nM)	SIRP-α variant construct (SEQ ID NO: 60), intact (other, uncleaved) QLLFNKTKSVEFTFSNDTVVIPCFVTNMEAQNTTEVYVKWKFKGRDIYTFDGALNKSTVPTDFSSAKIEVSQLLKGDASLKMDKSDAVSHTGNYTCEVTEQTREGETIIELKYRVVSGGGGSGGGGSGGGGSGGGGSLSGRSDNHGGGGSGGGGSEEELQIIQPDKSVLVAAGETATLRCTITSLFPVGPIQWFRGAGPGRVLIYNQRQGPFPRVTTVSDTTKRNNMDFSIRIGNITPADAGTYYCIKFRKGSPDDVEFKSGAGTELSVRAKPS
no binding (tested: 100 nM)	SIRP-α variant construct (SEQ ID NO: 63), intact (other, uncleaved) QLLFNKTKSVEFTFSNDTVVIPCFVTNMEAQNTTEVYVKWKFKGRDIYTFDGALNKSTVPTDFSSAKIEVSQLLKGDASLKMDKSDAVSHTGNYTCEVTELHREGETIIELKYRVVSGGGGSGGGGSGGGGSGGGGSLSGRSDNHGGGGSGGGGSEEELQIIQPDKSVLVAAGETATLRCTITSLFPVGPIQWFRGAGPGRVLIYNQRQGPFPRVTTVSDTTKRNNMDFSIRIGNITPADAGTYYCIKFRKGSPDDVEFKSGAGTELSVRAKPS
no binding (tested: 100 nM)	SIRP-α variant construct (SEQ ID NO: 59), intact (other, uncleaved) GQLLFNKTKSVEFTFSNDTVVIPCFVTNMEAQNTTEVYVKWKFKGRDIYTFDGALNKSTVPTDFSSAKIEVSQLLKGDASLKMDKSDAVSHTGNYTCEVTELTREGETIIELKYRVVSGGGGSGGGGSGGGGSGGGGSGGGGSLSGRSDNHGGGGSGGGGSEEELQIIQPDKSVLVAAGETATLRCTITSLFPVGPIQWFRGAGPGRVLIYNQRQGPFPRVTTVSDTTKRNNMDFSIRIGNITPADAGTYYCIKFRKGSPDDVEFKSGAGTELSVRAKPS
no binding (tested: 100 nM)	SIRP-α variant construct (SEQ ID NO: 58), intact (other, uncleaved) GQLLFNKTKSVEFTFSNDTVVIPCFVTNMEAQNTTEVYVKWKFKGRDIYTFDGALNKSTVPTDFSSAKIEVSQLLKGDASLKMDKSDAVSHTGNYTCEVTELTREGETIIELKYRVVSGGGGSGGGGSGGGGSGGGGSLSGRSDNHGGGGSGGGGSEEELQIIQPDKSVLVAAGETATLRCTITSLFPVGPIQWFRGAGPGRVLIYNQRQGPFPRVTTVSDTTKRNNMDFSIRIGNITPADAGTYYCIKFRKGSPDDVEFKSGAGTELSVRAKPS
no binding (tested: 100 nM)	SIRP-α variant construct (SEQ ID NO: 57), intact (other, uncleaved) GQLLFNKTKSVEFTFSNDTVVIPCFVTNMEAQNTTEVYVKWKFKGRDIYTFDGALNKSTVPTDFSSAKIEVSQLLKGDASLKMDKSDAVSHTGNYTCEVTELTREGETIIELKYRVVSGGGGSGGGGSGGGGSLSGRSDNHGGGGSGGGGSEEELQIIQPDKSVLVAAGETATLRCTITSLFPVGPIQWFRGAGPGRVLIYNQRQGPFPRVTTVSDTTKRNNMDFSIRIGNITPADAGTYYCIKFRKGSPDDVEFKSGAGTELSVRAKPS
